Assay results as given in PMC11878559.

Target: StbD antitoxin of plasmid pHNSHP45 (p45), untagged (plasmid pHNSHP45 (p45), studied in E. coli)
Test: tricine-SDS-PAGE of the purified StbDE complex

**Q.** For “StbD antitoxin of plasmid pHNSHP45 (p45), untagged (natural protein)”, which stoichiometry N is on record?
**A.** 2
